Test results published in patent US20080311122A1, “Antagonists of Hmgb1 and/or Rage and Methods of Use Thereof” (Medimmune, LLC, priority 2005, published 2008).

T1: recombinant HMG1 purified from E. coli as a calmodulin binding protein (CBP) fusion protein (human)
T1 chain: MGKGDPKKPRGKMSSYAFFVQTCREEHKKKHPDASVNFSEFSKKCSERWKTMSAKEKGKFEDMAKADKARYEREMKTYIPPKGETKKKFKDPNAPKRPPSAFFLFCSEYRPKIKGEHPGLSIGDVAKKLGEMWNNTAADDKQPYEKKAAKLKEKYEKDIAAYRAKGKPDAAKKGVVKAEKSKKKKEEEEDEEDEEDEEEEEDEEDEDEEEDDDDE

B1: anti-HMG1 antibody G2 (antibody, V domains shown)
VH: EVQLLESGGGLVQPGGSLRLSCAASGFTFSWYKMQWVRQAPGKGLEWVSGISPSGGSTAYADSVKGRFTISRDNSKNTLYLQMNSLRAEDTAVYYCAKMGLFNTGNSYVDYWGQGTLVTVSS
VL: AQSELTQPPSVSEAPGQRVTISCSGSTSNIGNNAVIWYQQLPGKAPKLLIYYDDLLPSGVSDRFSGSKSGTSGSLAISGLQSEDEADYYCASWDDNLNGPLFGGGTKLTVL
B2: anti-HMG1 antibody S17 (antibody, V domains shown)
VH: EVQLLESGGGLVQPGGSLRLSCAASGFTFSYYDMHWVRQAPGKGLEWVSRISPSGGYTWYADSVKGRFTISRDNSKNTLYLQMNSLRAEDTAVYYCTRGRYTSGWHEYFDPWGQGTLVTVSS
VL: AQDIQMTQSPSSLSASVGDRVTITCRASQSIGTYLNWYQQKPGTAPKVLIYAASSLQSGVPSRFSGSGSGTDFTLTISSLQPEDFSTYYCQQSYNTPRTFGQGTKLEIK
B3: anti-HMG1 antibody G20 (antibody, V domains shown)
VH: EVQLLESGGGLVQPGGSLRLSCAASGFTFSWYDMFWVRQAPGKGLEWVSWISPSGGYTKYADSVKGRFTISRDNSKNTLYLQMNSLRAEDTAMYYCARSGLDYYDSSGYLDAFDIWGQGTMVTVSS
VL: AQDIQMTQSPSSVSASVGDRVTITCRASQDVSIWLAWYQQKPGKAPKLLIFGASRLQSGVPSRFSGSRSGADFTLTIDSVQPEDFASYYCQQADSFPLTFGGGTKVEIK

Target: T1, recombinant HMG1 purified from E. coli …
Experiment: BIAcore, mAb immobilized, HMG1 injected, steady-state model
Details: remark: other sources report otherwise

| Kd [nM] | Binder |
| --- | --- |
| 101 | B1 |
| 331 | B2 |
| 114 | B3 |
